Results: patent publication US20190062438A1 (CSL, published 2019)
Changes are numbered by the printed parent chain. “And” between values parts separate entries of the source, which are not always exact repeats. Equal entries are not always repeated.

Assays:
Assay in all cases: SPR, kinetics, Fab over captured mutant
[1] = target: T1, shCD131 K362A (human, UniProt P32927 17-438)
T1 construct: C-terminal 6xHis
T1 sequence: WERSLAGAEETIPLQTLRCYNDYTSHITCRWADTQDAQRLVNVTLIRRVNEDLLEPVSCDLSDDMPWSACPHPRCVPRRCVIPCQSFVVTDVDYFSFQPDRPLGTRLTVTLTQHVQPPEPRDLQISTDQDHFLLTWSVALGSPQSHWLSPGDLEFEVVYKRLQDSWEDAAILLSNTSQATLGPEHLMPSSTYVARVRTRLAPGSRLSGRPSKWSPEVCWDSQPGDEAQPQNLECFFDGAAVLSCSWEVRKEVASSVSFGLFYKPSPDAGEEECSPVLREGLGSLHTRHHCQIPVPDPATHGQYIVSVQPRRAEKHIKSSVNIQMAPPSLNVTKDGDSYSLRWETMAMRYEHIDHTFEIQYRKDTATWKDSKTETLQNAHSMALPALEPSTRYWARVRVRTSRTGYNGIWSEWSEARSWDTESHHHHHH
Method: (§1) As shβc is a dimer, kinetics assays were performed with shβc captured on the sensor surface, and purified Fab injected as the analyte. Avidity effects were avoided by the use of Fab rather than whole IgG.
(§2) shCD131 was captured on spots 1 and 5 of each flow cell for 2 minutes at a concentration of 0.4 μg/ml. […] For some analysis purified Fab was injected over each flow cell for 3 minutes and dissociation was monitored for a further 10 minutes. Regeneration of the surface was performed after each cycle with a 40 second injection of 25 mM glycine, pH 2.0. The analysis was performed with Fabs at several concentrations between 100 and 0.31 nM, with each concentration analyzed twice and in random order. The analysis was performed at a flow rate of 30 μl/min in HBS-EP buffer (10 mM Hepes, 150 mM NaCl, 3 mM EDTA, 0.005% Tween 20, pH 7.4) at 37° C. Responses from spots 2 and 4 of each flow cell, (in which shβc was not captured, but otherwise treated identically), were subtracted from those of spots 1 and 5 respectively to produce reference subtracted data. Reference subtracted responses from a blank injection comprising buffer alone were subtracted from the resultant sensorgrams to produce double referenced data suitable for kinetic analysis. Double-referenced sensorgrams were fitted using non-linear regression to a model describing 1:1 kinetics, including a term for mass transport limitation. The Rₘₐₓ value was fitted locally to account for slight deviations in the level of sCD131 captured, with association rate (kₐ), dissociation rate (kd) and equilibrium dissociation constant (KD) fitted globally.
(§3) Mapping of the shCD131 epitope was performed by measurement of the affinity of Fabs for various alanine point mutants of shCD131 essentially as described above, with the following exceptions. Each shCD131 mutant was captured for 120 seconds at concentrations between 1 and 5 μg/ml. For kinetic analysis, purified recombinant Fabs were injected for 2 minutes, and dissociation was monitored for a further 2 minutes. […] Fab concentrations ranged from 16 μM to 3.9 nM in two-fold dilutions.

[2] = target: T2, shCD131 E366A (human, UniProt P32927 17-438)
T2 construct: C-terminal 6xHis
T2 sequence: T1 sequence with A346K, E350A
Method: as §1, §2, §3

[3] = target: T3, shCD131 N422A (human, UniProt P32927 17-438)
T3 construct: C-terminal 6xHis
T3 sequence: T1 sequence with A346K, N406A
Method: as §1, §2, §3

[4] = target: T4, shCD131 V104A (human, UniProt P32927 17-438)
T4 construct: C-terminal 6xHis
T4 sequence: T1 sequence with V88A, A346K
Method: as §1, §2, §3

Kd [1]: 64.8 nM and 65 nM | Kd [2]: 32 nM | Kd [3]: 54 nM | Kd [4]: 117 nM
B1: 9A2 Fab (Fab, V domains shown)
VH: EVQLLESGGGLVQPGGSLRLSCAASGFTFSHYHMLWVRQAPGKGLEWVSSIRSSGGFTYYADSVKGRFTISRDNSKNTLYLQMNSLRAEDTAVYYCARFYDSFFDIWGQGTMVTVSS
VL: DIQMTQSPSSVSASVGDRVTITCRASQGISSWLAWYQQKPGKAPKLLIYAASSLQSGVPSRFSGSGSGTDFTLTISSLQPEDFATYYCQQANSFPITFGQGTRLEIKR
notes: also called recombinant Fab of 9A2
